The source of these data is patent US20030152959.

In the data set the target is T1, GST-ERRα1 (Homo sapiens) (UniProt P11474).
T1 sequence: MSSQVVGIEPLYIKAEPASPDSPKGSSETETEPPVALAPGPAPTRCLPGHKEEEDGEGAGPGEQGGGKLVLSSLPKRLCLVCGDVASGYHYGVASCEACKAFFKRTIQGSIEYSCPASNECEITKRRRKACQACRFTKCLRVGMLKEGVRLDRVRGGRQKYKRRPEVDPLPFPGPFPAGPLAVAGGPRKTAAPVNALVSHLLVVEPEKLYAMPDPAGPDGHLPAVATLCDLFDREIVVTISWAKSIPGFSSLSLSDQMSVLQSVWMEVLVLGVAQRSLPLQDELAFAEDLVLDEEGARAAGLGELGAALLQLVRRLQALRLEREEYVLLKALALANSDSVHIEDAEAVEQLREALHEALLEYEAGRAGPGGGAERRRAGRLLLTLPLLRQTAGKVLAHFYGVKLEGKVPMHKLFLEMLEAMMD
The settings on record: cell-free transcription, HeLa nuclear extract, approximate.

As to SV40 genome / late promoter template, the activity (fold repression) was found to be 3.
